Where a chain is given by its changes, count along the chain named. Names and notes keep the numbering of the source.
Columns and labels:
[1] = biological target: T1, CD28 (Homo sapiens, UniProt P10747); assay: Flow binding to Jurkat/IL2 reporter cells (CD28); set-up: host or cells: Jurkat cells expressing an IL-2-luciferase reporter
Experimental: Binding of selected immunomodulatory fusion proteins to cognate binding partners was assessed. […] Cells were sorted in a Bio-Rad S3 Cell Sorter (Bio-Rad Corp., USA) to >98% purity. Jurkat/IL2 reporter cells, which endogenously express CD28, were used to detect binding to CD28.
For staining and analysis by flow cytometry, 100,000 cells of appropriate transfected cells were plated in 96-well round bottom plates. Cells were spun down and resuspended in staining buffer (phosphate buffered saline (PBS), 1% bovine serum albumin (BSA), and 0.1% sodium azide) for 20 minutes to block non-specific binding. […] Primary staining was performed on ice for 45 minutes, before washing cells in staining buffer twice. Phycoerythrin (PE)-conjugated anti-human Fc (Jackson ImmunoResearch, USA) was diluted 1:150, added to cells and incubated another 30 minutes on ice. Cells were then washed twice with 150 μL/well stain buffer, fixed in 2% formaldehyde/PBS, and analyzed on Intellicyt flow cytometer (Intellicyt Corp., USA). PE Mean Fluorescence Intensity (MFI) was calculated for each cell type with FlowJo Version 10 software (FlowJo LLC, USA).
Binding assays were carried out to assess the specificity and affinity of multivalent proteins to cell-expressed CTLA-4, CD28, and PD-L1 counter structures.
The EC50 for binding also was determined.

[2] = biological target: T1, CD28; assay: Jurkat/IL2 + CHO/OKT3 +/- PD-L1 reporter assay: PD-L1-dependent CD28 costimulation; assay type: cell-based; set-up: host or cells: Jurkat cells expressing an IL-2-luciferase reporter; settings: Table E12; Jurkat/IL2 + CHO/OKT3/PD-L1; 5.0 nM
Outline: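 Readout is relative luminescence from lysed cocultures: test protein given 15 min at room temperature to Jurkat cells before adding CHO artificial APCs displaying OKT3 alone or OKT3 plus PD-L1, then 5 h at 37 °C, 5% CO2.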

[3] = biological target: huCTLA4 (Homo sapiens, UniProt P16410); assay: Flow binding to CHO cells stably expressing CTLA4; set-up: huCTLA4 and huPD-L1, full-length mammalian surface expression constructs were generated; expressed in transfected cells; host or cells: CHO cells, lentiviral transduction, sorted to >98% purity; settings: for CTLA4 MFI at 33.3 nM: CHO cells stably expressing CTLA4
Chain of huCTLA4 (P16410 36-223): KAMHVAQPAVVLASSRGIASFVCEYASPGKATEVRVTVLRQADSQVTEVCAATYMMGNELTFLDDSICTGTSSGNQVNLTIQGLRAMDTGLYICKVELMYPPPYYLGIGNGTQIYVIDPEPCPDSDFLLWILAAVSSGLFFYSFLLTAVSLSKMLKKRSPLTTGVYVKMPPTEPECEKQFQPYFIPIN
Outline: (§1)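 Cells were first blocked in PBS with 1% BSA and 0.1% sodium azide. Primary staining with fusion protein ran 45 min on ice, and secondary staining with PE anti-human Fc at 1:150 ran 30 min on ice.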

[4] = biological target: huPD-L1 (Homo sapiens, UniProt Q9NZQ7); assay: Flow binding to CHO cells stably expressing PD-L1; set-up: huCTLA4 and huPD-L1, full-length mammalian surface expression constructs were generated; expressed in transfected cells; host or cells: CHO cells, lentiviral transduction, sorted to >98% purity; settings: for PD-L1 MFI at 33.3 nM: CHO cells stably expressing PD-L1
Chain of huPD-L1 (Q9NZQ7 19-290): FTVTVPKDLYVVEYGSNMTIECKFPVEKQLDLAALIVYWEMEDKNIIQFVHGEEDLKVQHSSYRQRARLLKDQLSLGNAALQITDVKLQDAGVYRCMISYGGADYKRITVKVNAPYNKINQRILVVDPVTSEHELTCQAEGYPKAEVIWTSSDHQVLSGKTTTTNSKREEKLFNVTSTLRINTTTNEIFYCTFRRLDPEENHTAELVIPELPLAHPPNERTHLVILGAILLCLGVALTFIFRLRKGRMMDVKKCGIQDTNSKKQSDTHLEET
Outline: as §1

[5] = Table E10, 33.3 nM, Jurkats (CD28)
[6] = Table E19, Jurkats (CD28), 33.3 nM
[7] = Table E20, Jurkats (CD28), 33.3 nM
[8] = Table E23, CD80 IgV-Fc (inert) at 33.3 nM, Jurkat (CD28)
[9] = Table E23, MFI at 33.3 nM relative to CD80 WT IgV-Fc
[10] = Table E23, CD80 IgV-Fc (inert) at 33.3 nM
[11] = Table E23, ratio of MFI at 33.3 nM
[12] = Table E11, 33.3 nM, listed as WT CD80 ECD-Fc = 1.0

B1: E35D/M47V/T62S/L85Q (protein)
chain: VIHVTKEVKEVATLSCGHNVSVEELAQTRIYWQKDKKMVLTMMSGDVNIWPEYKNRTIFDISNNLSIVILALRPSDEGTYECVVQKYEKDAFKREHLAEVTLSVKAD
- CD28 MFI at 33.3 nM [1, 5]: 99.4
- Relative Luciferase Units (RLU), CD80 Cone 5.0 nM [2]: 1402 RLU
- CTLA4 MFI at 33.3 nM ([3]; Table E10, 33.3 nM): 31230

B2: M47V/N48K (protein)
chain: B1 chain with D35E, N48K, S62T, Q85L
- CD28 MFI at 33.3 nM [1, 6]: 413
- CTLA4 MFI at 33.3 nM ([3]; Table E19, 33.3 nM): 44640
- PD-L1 MFI at 33.3 nM ([4]; Table E19, 33.3 nM): 3083

B3: A26E/M47L/V68M/D90G (protein)
chain: B1 chain with A26E, D35E, V47L, S62T, V68M, Q85L, D90G
- CD28 MFI at 33.3 nM [1, 7]: 2583
- CTLA4 MFI at 33.3 nM ([3]; Table E20, 33.3 nM): 21900
- PD-L1 MFI at 33.3 nM ([4]; Table E20, 33.3 nM): 10626

B4: V68M/L85Q (protein)
chain: B1 chain with D35E, V47M, S62T, V68M
- CD28 MFI at 33.3 nM [1, 6]: 91.7
- CTLA4 MFI at 33.3 nM ([3]; Table E19, 33.3 nM): 3288
- PD-L1 MFI at 33.3 nM ([4]; Table E19, 33.3 nM): 347

B5: H18Y/A26E/M47L/D90G (protein)
chain: B1 chain with H18Y, A26E, D35E, V47L, S62T, Q85L, D90G
- CD28 MFI at 33.3 nM [1, 7]: 2858
- CTLA4 MFI at 33.3 nM ([3]; Table E20, 33.3 nM): 23485
- PD-L1 MFI at 33.3 nM ([4]; Table E20, 33.3 nM): 8933

B6: H18Y/A26P/E35D/M471/V68M/A71G (protein)
chain: B1 chain with H18Y, A26P, V47I, S62T, V68M, A71G, Q85L
- CD28 MFI at 33.3 nM [1, 8]: 5125
- CD28 Fold change to WT CD80 [1, 9]: 50.2
- CTLA4 MFI at 33.3 nM [3, 10]: 12156
- CTLA4 Fold change to WT CD80 [3, 9]: 8.8
- PD-L1 MFI at 33.3 nM [4, 10]: 54482
- PD-L1 Fold change to WT CD80 [4, 9]: 330.2
- Ratio of PDL1:CD28 [4, 11]: 10.6

B7: M47V/K89N (protein)
chain: B1 chain with D35E, S62T, Q85L, K89N
- CD28 MFI at 33.3 nM [1, 6]: 197
- CTLA4 MFI at 33.3 nM ([3]; Table E19, 33.3 nM): 32381
- PD-L1 MFI at 33.3 nM ([4]; Table E19, 33.3 nM): 622

B8: E35D/M47V/I61V/L85M (protein)
chain: B1 chain with I61V, S62T, Q85M
- CD28 MFI at 33.3 nM [1, 5]: 274
- Relative Luciferase Units (RLU), CD80 Cone 5.0 nM [2]: 1176 RLU
- CTLA4 MFI at 33.3 nM ([3]; Table E10, 33.3 nM): 28848

B9: E35D/M47L/V68M/L85Q (protein)
chain: B1 chain with V47L, S62T, V68M
- CD28 MFI at 33.3 nM [1, 6]: 159
- CTLA4 MFI at 33.3 nM ([3]; Table E19, 33.3 nM): 28106
- PD-L1 MFI at 33.3 nM ([4]; Table E19, 33.3 nM): 15307

B10: V68M (protein)
chain: B1 chain with D35E, V47M, S62T, V68M, Q85L
- CD28 MFI at 33.3 nM [1, 6]: 37.9
- CTLA4 MFI at 33.3 nM ([3]; Table E19, 33.3 nM): 568
- PD-L1 MFI at 33.3 nM ([4]; Table E19, 33.3 nM): 118

B11: N48K/V68M (protein)
chain: B1 chain with D35E, V47M, N48K, S62T, V68M, Q85L
- CD28 MFI at 33.3 nM [1, 6]: 118
- CTLA4 MFI at 33.3 nM ([3]; Table E19, 33.3 nM): 2341
- PD-L1 MFI at 33.3 nM ([4]; Table E19, 33.3 nM): 754

B12: E35D/M47V/N48KN68M/L85M (protein)
chain: B1 chain with N48K, S62T, V68M, Q85M
- CD28 Fold change to WT CD80 [1, 12]: 7.8
- CD28 MFI at 33.3 nM ([1]; Table E11, Jurkats (CD28), 33.3 nM): 245
- CTLA4 Fold change to WT CD80 [3, 12]: 8.9
- CTLA4 MFI at 33.3 nM ([3]; Table E11, 33.3 nM): 15581
- PD-L1 Fold change to WT CD80 [4, 12]: 147.9
- PD-L1 MFI at 33.3 nM ([4]; Table E11, 33.3 nM): 7618
- Ratio of PDL1:CD28 ([4]; Table E11, MFI at 33.3 nM): 31.1

B13: M47L/V68M/L85Q (protein)
chain: B1 chain with D35E, V47L, S62T, V68M
- CD28 MFI at 33.3 nM [1, 6]: 60.9
- CTLA4 MFI at 33.3 nM ([3]; Table E19, 33.3 nM): 11134
- PD-L1 MFI at 33.3 nM ([4]; Table E19, 33.3 nM): 4039

B14: H18Y/A26E/E35D/V68M (protein)
chain: B1 chain with H18Y, A26E, V47M, S62T, V68M, Q85L
- CD28 MFI at 33.3 nM [1, 7]: 372
- CTLA4 MFI at 33.3 nM ([3]; Table E20, 33.3 nM): 20929
- PD-L1 MFI at 33.3 nM ([4]; Table E20, 33.3 nM): 17904

B15: A26E/M47L/V68M/A71G (protein)
chain: B1 chain with A26E, D35E, V47L, S62T, V68M, A71G, Q85L
- CD28 MFI at 33.3 nM [1, 7]: 98.7
- CTLA4 MFI at 33.3 nM ([3]; Table E20, 33.3 nM): 3227
- PD-L1 MFI at 33.3 nM ([4]; Table E20, 33.3 nM): 1667

B16: E35D/M47V/L85M/R94Q (protein)
chain: B1 chain with S62T, Q85M, R94Q
- CD28 MFI at 33.3 nM [1, 5]: 23.7
- Relative Luciferase Units (RLU), CD80 Cone 5.0 nM [2]: 466 RLU
- CTLA4 MFI at 33.3 nM ([3]; Table E10, 33.3 nM): 23334

B17: N48K (protein)
chain: B1 chain with D35E, V47M, N48K, S62T, Q85L
- CD28 MFI at 33.3 nM [1, 6]: 60.1
- CTLA4 MFI at 33.3 nM ([3]; Table E19, 33.3 nM): 4952
- PD-L1 MFI at 33.3 nM ([4]; Table E19, 33.3 nM): 481

B18: H18I/A26P/E35D/M47V/V68M/A71G (protein, UniProt P33681 35-288, looked up, variant H18I A26P E35D M47V V68M A71G)
T-lymphocyte activation …: VIHVTKEVKEVATLSCGINVSVEELPQTRIYWQKDKKMVLTMMSGDVNIWPEYKNRTIFDITNNLSIMILGLRPSDEGTYECVVLKYEKDAFKREHLAEVTLSVKADFPTPSISDFEIPTSNIRRIICSTSGGFPEPHLSWLENGEELNAINTTVSQDPETELYAVSSKLDFNMTTNHSFMCLIKYGHLRVNQTFNWNTTKQEHFPDNLLPSWAITLISVNGIFVICCLTYCFAPRCRERRRNERLRRESVRPV
- CD28 MFI at 33.3 nM [1, 8]: 2573
- CD28 Fold change to WT CD80 [1, 9]: 25.2
- CTLA4 MFI at 33.3 nM [3, 10]: 21923
- CTLA4 Fold change to WT CD80 [3, 9]: 15.8
- PD-L1 MFI at 33.3 nM [4, 10]: 64919
- PD-L1 Fold change to WT CD80 [4, 9]: 393.4
- Ratio of PDL1:CD28 [4, 11]: 25.2

B19: H18L/E35D/M47V/V68M/A71G/D90G (protein, UniProt P33681 35-288, looked up, variant H18L E35D M47V V68M A71G D90G)
T-lymphocyte activation …: B18 T-lymphocyte activation … with I18L, P26A, D90G
- CD28 MFI at 33.3 nM [1, 8]: 6349
- CTLA4 MFI at 33.3 nM [3, 10]: 20280
- PD-L1 MFI at 33.3 nM [4, 10]: 64761

B20: H18V/A26G/E35D/M47V/V68M/A71G/D90G (protein, UniProt P33681 35-288, looked up, variant H18V A26G E35D M47V V68M A71G D90G)
T-lymphocyte activation …: B18 T-lymphocyte activation … with I18V, P26G, D90G
- CD28 MFI at 33.3 nM [1, 8]: 8189
- CTLA4 MFI at 33.3 nM [3, 10]: 25398
- PD-L1 MFI at 33.3 nM [4, 10]: 66198
